Measured values as given in patent US20050233963A1 (priority 2000, published 2005).

How the values were obtained:
hsc70 = target: T1, hsc70 (Bos taurus, UniProt P19120); experiment: UBP far-western analysis on hsc70; format: binding; conditions: GST fusions as probe
T1 construct: purchased Stressgen
Text: FIG. 13A: Thirty μg of HeLa cell lysate was separated by SDS-PAGE in three identical lanes, blotted to nitrocellulose and probed with either, no probe (none), GST alone, or GST-UBP. The far-western blot was then developed with anti-GST antibody to reveal bands which interact with UBP. The arrow to the right indicates a 70 kD band detected by the GST-UBP fusion. The numbers to the left of each blot represent molecular weights in kilodaltons. […] FIG. 13C, Samples from the GST-UBP pull down assay were analyzed by western blot for the presence hsc70. At the bottom of the gel, the contents of each reaction are indicated by the plus symbols. The NaCl concentration of the washing buffer (100, 200, 300, and 500 mM) is indicated at the top of each lane. The arrow to the right of the blot indicates the position of the hsc70 band.
The term “hsc70” is used when referring to both hsp70 and its nearly identical constitutive counterpart, hsc70. […] The numbers to the left of the blots indicate the molecular weights in kilodaltons. The diagram below the blots indicates regions of UBP contained in each fusion construct. The column to the right summarizes the results, where a plus symbol indicates binding and a minus symbol indicates no binding.
Western blots were performed using standard techniques. Briefly, 30 μg HeLa cytoplasmic extract or 20 ng of hsc70, hsp70, or hsp90 were denatured in 1×SDS sample buffer. The samples were loaded on a 10% polyacrylamide gel. Separated protein was transferred to nitrocellulose membranes. The membranes were blocked in 5% dry milk protein in TBS (20 mM Tris [pH 7.4], 100 mM NaCl) for 45 min. The gels with proteins separated on them were transferred to nitrocellulose and blocked against 5% dry milk protein in TBS for 45 min. Primary antibody, either anti-hsp70 or hsp90 monoclonal antibodies, or anti-UBP rabbit polyclonal antibody was incubated with the blots at appropriate concentrations (1:1000 dilutions for each) in 5% milk protein in TBS for 2 hours at 4° C. with gentle rocking. The membranes were washed with TBS for 10 minutes. […]

HIV-1 = HIV-1 particle release, p24 antigen capture ELISA in transfected HeLa cells; format: cell-based, human immunodeficiency virus type 1; conditions: co-expression in HeLa cells
Procedure: FIG. 20B: Alternatively, HeLa cells were co-transfected with 1 μg of Vpu^+ or Vpu^− proviral genomes and 10 μg pHIV-TARluc (Luc) or pHIV-FTPR. Thirty-six hours after transfection the amount of p24 Gag in the media and cell pellets was quantified using an antigen capture ELISA. The relative particle release is given by the ratio of extracellular to intracellular p24. The data were normalized to the control (Luc). The error bars represent the error of the mean for three independent experiments.
Triplicate plates of 5×10^5 HeLa cells were transfected with 1 μg of Vpu^+ (MSMBA) or Vpu^− (DF101) proviral genomes and 10 μg of pHIV-UBP, pHIV-UBP-N, pHIV-FTPR or pHIV-TARluc. Thirty-six hrs after transfection, media were harvested and centrifuged at low-speed to remove cellular debris. The cells were washed with 1×PBS, resuspended in 1 ml of PBS, then pelleted at 5000×g in microfuge tubes. The cell pellets and media were treated with lysis buffer and applied to an HIV-1 p24 antigen assay kit following the instructions of the manufacturer (Coulter, Westbrook, Maine). Samples were processed along with positive controls to give quantitative levels of p24 Gag. Data were plotted as a function of the relative p24 units.

T1 sequence (P19120 2-650 limits assumed): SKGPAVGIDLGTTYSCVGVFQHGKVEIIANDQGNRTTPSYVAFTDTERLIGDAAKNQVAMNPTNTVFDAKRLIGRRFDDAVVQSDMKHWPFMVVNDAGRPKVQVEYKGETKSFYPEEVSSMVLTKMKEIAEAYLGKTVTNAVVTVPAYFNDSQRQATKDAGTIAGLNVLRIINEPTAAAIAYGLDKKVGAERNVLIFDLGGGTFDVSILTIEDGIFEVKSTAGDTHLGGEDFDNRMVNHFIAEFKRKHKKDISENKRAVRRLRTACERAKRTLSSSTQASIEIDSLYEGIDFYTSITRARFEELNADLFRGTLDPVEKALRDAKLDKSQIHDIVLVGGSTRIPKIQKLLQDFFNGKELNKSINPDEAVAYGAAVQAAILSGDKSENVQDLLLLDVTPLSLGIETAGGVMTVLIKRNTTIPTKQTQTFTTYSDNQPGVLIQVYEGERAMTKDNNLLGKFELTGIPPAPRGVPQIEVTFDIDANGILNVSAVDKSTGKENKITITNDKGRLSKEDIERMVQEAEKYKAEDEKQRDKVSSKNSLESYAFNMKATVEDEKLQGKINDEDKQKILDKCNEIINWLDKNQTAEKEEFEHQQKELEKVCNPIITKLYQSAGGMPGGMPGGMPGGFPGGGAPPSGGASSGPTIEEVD

| Molecule | interaction with hsc70 (hsc70) | efficiency of virus particle exit (extracellular to intracellular p24 Gag) (HIV-1; Vpu present) | efficiency of virus particle exit (extracellular to intracellular p24 Gag) (HIV-1; absence of Vpu) |
| --- | --- | --- | --- |
| C 1/2: C-terminal half of UBP (a.a. 145-313) (protein, left off: a dimerising Fc or GST) VQDCERAICIDPAYSKAYGRMGLALSSLNKHVEAVAYYKKALELDPDNETYKSNLKIAELKLREAPSPTGGVGSFDIAGLLNNPGFMSMASNLMNNPQIQQLMSGMISGGNNPLGTPGTSPSQNDLASLIQAGQQFAQQMQQQNPELIEQLRSQIRSRTPSASNDDQQE | did not detectably interact | – | – |
| FTPR: UBP fragment containing TPR 2-4 with flanking charged residues (a.a. 81-209) (protein) TPPSEEDSAEAERLKTEGNEQMKVENFEAAVHFYGKAIELNPANAVYFCNRAAAYSKLGNYAGAVQDCERAICIDPAYSKAYGRMGLALSSLNKHVEAVAYYKKALELDPDNETYKSNLKIAELKLREA | – | slight increase | did not significantly increase |
| TPR 2-4 (protein, left off: a dimerising Fc or GST) KTEGNEQMKVENFEAAVHFYGKAIELNPANAVYFCNRAAAYSKLGNYAGAVQDCERAICIDPAYSKAYGRMGLALSSLNKHVEAVAYYKKALELDPDNETY | capable of stable interaction | – | – |
| N 1/2: N-terminal portion of UBP (a.a. 1-145) (protein, left off: a dimerising Fc or GST) MDNKKRLAYAIIQFLHDQLRHGGLSSDAQESLEVAIQCLETAFGVTVEDSDLALPQTLPEIFEAAATGKEMPQDLRSPARTPPSEEDSAEAERLKTEGNEQMKVENFEAAVHFYGKAIELNPANAVYFCNRAAAYSKLGNYAGAV | did not detectably interact | slight increase | did not significantly increase |
